Test results published in PMC3553500.

Molecular target: GAPDH (purified recombinant, no tag named) (UniProt P04406)
Assay: ELISA

Chain of NleB-FLAG (purified) (enzyme) (Q5XMK8 whole entry): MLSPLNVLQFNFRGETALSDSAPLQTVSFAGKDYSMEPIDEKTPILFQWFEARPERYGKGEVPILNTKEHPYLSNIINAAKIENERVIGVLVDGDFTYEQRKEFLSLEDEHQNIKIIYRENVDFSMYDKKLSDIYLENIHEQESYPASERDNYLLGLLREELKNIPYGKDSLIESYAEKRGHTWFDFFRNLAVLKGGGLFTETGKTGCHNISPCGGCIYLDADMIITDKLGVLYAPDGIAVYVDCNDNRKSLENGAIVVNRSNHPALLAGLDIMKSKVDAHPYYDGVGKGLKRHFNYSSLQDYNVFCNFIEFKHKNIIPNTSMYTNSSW

## NleB-FLAG (purified) (enzyme)
  Kd: 32 µM
